In patent US20230257444A1, “FUSION PROTEIN AND COMBINATIONS THEREOF” (Agency for Science, Technology and Research, priority 2020, published 2023):
Read-outs that look alike come from different tables or passages of the source.

Design: species or system Balb/c mice
Conditions: mouse, in vivo, ip
Experimental: 9 week old female Balb/c mice (InVivos, Singapore) were injected intraperitoneally with 0.5, 1, 2 or 4 mg hDectin1-Fc in groups of 3. Blood was sampled from the tail at time 0, 5, 10, 15, 30 mins and 1, 2, 4, 8 hours thereafter followed by daily sampling with Microvette® ([…], Nümbrecht, Germany) for 20 days. The respective blood samples were allowed to clot and centrifuged at 2000 g and the blood serum collected. The blood serum was diluted accordingly and the concentration of hDectin1-Fc was tested with Human IgG ELISA Antibody Pair Kit and developed with pNPP ELISA Substrate ([…] Technologies, Vancouver, Canada). The plates were read on PLATE reader and the data analysed for hDectin1-Fc pharmacokinetic parameters with open source Microsoft Excel add-in PKSolver (China Pharmaceutical University, Nanjing, China).
The pharmacokinetic parameters of hDectin1-Fc at different doses (4 mg, 2 mg, 1 mg and 0.5 mg) were determined by administering a single bolus intraperitoneal injection and sampling blood serum daily (FIG. 14). The daily concentration over 20 days was measured by ELISA and the results analysed with PKSolver to determine the pharmacokinetic parameters (Table 2). […] The lowest dose of 0.5 mg has a half-life and MRT lower than the 2 mg and 1 mg dose and its peak concentration (Cmax) is at 10 hours instead of 2 hours like the other doses. This observed outcome for the 0.5 mg dose is likely to arise from the slow transfer of hDectin1-Fc from the intraperitoneal space of the mouse into its bloodstream due to the lower concentration gradient and stronger role of excretion over distribution. The duration of the MRT and the half-life is a reflection of the presence of the protective effects of hDectin1-Fc in the body of the mice. The optimal dose with the longest MRT and half-life is approximately 1 mg. The general take away from the pharmacokinetic study are: (i) high doses result in rapid excretion of the drug, (ii) peak concentration occurs at 2 hours (iii) lower doses have a longer half-life and mean residence time appropriate for passive immunization.

Q: For “hDectin1-Fc: soluble dimeric fusion protein: human Dectin-1 receptor polypeptide (aa 73-247) fused to human IgG1 Fc via hinge; SEQ ID NO: 5”, which Cl/F (0.5 mg) is on record?
A: The Cl/F was 0.0066 (μg)/(μg/ml)/h.

Q: What about the Cmax (0.5 mg) of the same substance?
A: The Cmax was 330 µg/mL.

Q: What about the Tmax (0.5 mg) of the same substance?
A: The Tmax was 10 h.

Q: What about the Vz/F (0.5 mg) of the same substance?
A: The Vz/F was 0.9495 (μg)/(μg/ml).

Q: What about the t½ (0.5 mg) of the same substance?
A: Its t½ is 100 h.

Q: What about the Cl/F (1 mg) of the same substance?
A: Its Cl/F is 0.0163 (μg)/(μg/ml)/h.

Q: And the Cmax (1 mg)?
A: Its Cmax is 294 µg/mL.

Q: What about the Tmax (1 mg) of the same substance?
A: Its Tmax is 2 h.

Q: And the Vz/F (1 mg)?
A: The Vz/F was 3.4254 (μg)/(μg/ml).

Q: What about the t½ (1 mg) of the same substance?
A: The t½ was 146 h.

Q: And the Cl/F (2 mg)?
A: The Cl/F was 0.0095 (μg)/(μg/ml)/h.

Q: And the Cmax (2 mg)?
A: The Cmax was 1039 µg/mL.

Q: What about the Tmax (2 mg) of the same substance?
A: Its Tmax is 2 h.

Q: And the Vz/F (2 mg)?
A: Its Vz/F is 2.1489 (μg)/(μg/ml).

Q: What about the t½ (2 mg) of the same substance?
A: Its t½ is 156 h.

Q: What about the Cl/F (4 mg) of the same substance?
A: The Cl/F was 0.0314 (μg)/(μg/ml)/h.

Q: What about the Tmax (4 mg) of the same substance?
A: Its Tmax is 2 h.

Q: What about the Vz/F (4 mg) of the same substance?
A: The Vz/F was 3.5008 (μg)/(μg/ml).

Q: And the t½ (4 mg)?
A: The t½ was 77 h.
